Source: patent US20220195015A1 (published 2022)

B1: C213 (antibody, V domains shown)
VH: EVQLVESGGGLVKPGGSLRLSCAASGFTFSSYSMNWVRQAPGKGLEWVSSISSSSSYIYYADSVKGRFTISRDNAKNSLYLQMNSLRAEDTAVYYCARVQVGARGWVDYWGQGTLVTVSS
VL: NFMLTQPHSVSESPGKTVTISCTRSSGSIASNYVQWYQQRPGSAPTTVIYEDNERPSGVPDRFSGSIDSSSNSASLTISGLKTEDEADYYCQSYDRINWVFGGGTKLTVL
B2: C217 (antibody, V domains shown)
VH: EVQLVESGGGLVKPGGSLRLSCAASGFTFSSYSMNWVRQAPGKGLEWVSFISSRSSYIYYADSVKGRFTISRDNAKNSLYLQMNSLRAEDTAVYYCARVQVGARGWVDYWGQGTLVTVSS
VL: NFMLTQPHSVSESPGKTVTISCTRSSGSIASNYVQWYQQRPGSAPTTVIYEDNQRPSGVPDRFSGSIDSSSNSASLTISGLKTEDEADYYCQSYDSINWVFGGGTKLTVL
B3: C091 (antibody, V domains shown)
VH: QVQLVQSGAEVKKPGSSVKVSCKASGGTFSSYTISWVRQAPGQGLEWMGRIIPILGIANYAQKFQGRVTITADKSTSTAYMELSSLRSEDTAVYYCARDSGYSGYGSTYYMDVWGKGTTVTVSS
VL: QSVLTQPPSVSGAPGQRVTISCTGSSSNIGAGYDVHWYQQLPGTAPKLLIYGNSNRPSGVPDRFSGSKSGTSASLAITGLQAEDEADYYCQSYDSSLSGSVFGTVTKVTVL
B4: C563 (antibody, V domains shown)
VH: EVQLVESGGGLVKPGGSLRLSCAASGFPFTNAWMSWVRQAPGKGLEWVGHIKDYTDGGTTDYAAPVKGKFTISRDDSKNTLYLHMNSLKTEDTAVYYCSTVGSYYYDSRGPTSDAFDIWGQGTLVTVSS
VL: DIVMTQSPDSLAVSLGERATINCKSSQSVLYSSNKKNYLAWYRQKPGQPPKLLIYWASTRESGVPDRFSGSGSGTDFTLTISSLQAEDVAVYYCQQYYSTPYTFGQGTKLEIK
B5: C073 (antibody, V domains shown)
VH: QLQLQESGPGLVKPSETLSLTCTVSGASIPSSTSYWGWIRQPPGKGLEWIGSIYYTGSTYYNPSLKSRVTISVDTSKNHFSLILSSVTAADTAVYYCARRSITLAGRDCLDFWGQGTLVTVSS
VL: DIQLTQSPSSLSASVGDRLTITCRASQSITTSLNWYQQKPGKAPKLLIYAASSLQSGVPSRFSGSGSGTDFTLAISSLQPEDFATYYCQQSYIPLLTFGGGTKVDIK
B6: C077 (antibody, V domains shown)
VH: QVQLVQSGAEVKKPGASVKVSCKASGYTFTSYAMHWVRQAPGQRLEWMGWINTDNGNTKYSQKFQGRVTITRDTSASTAYMELSSLRSEDTAVYYCAREGALTNWFDPWGQGTLVTVSS
VL: SYELTQPPSVSVAPGQTARIPCGGNNIGSKSVHWYQQKPGQAPVLVVYDDSDRPSGIPERFSGSNSGNTATLTISRVEAGDEADYYCQVWDSSSDLHVVFGGGTKLTVL
B7: C080 (antibody, V domains shown)
VH: EVQLVQSGAEVKKPGESLNISCKASGYSFTIYWIAWVRQLPGKGLEWMGIIYPGDSDTRYSPSFQGQVTISADKSISTAYLQWRSLKASDSAVYYCARGVAVDWYFDLWGRGTLVTVSS
VL: QSVLTQPPSVSGAPGQRVTISCAGSSSNIGAGFDVYWYQQLPGTAPKLLIYGNNNRPSGVPDRFSGSKSGTSASLAITGLQAEDEADYYCQSSGSVLSDLYVFGTGTKVTVL
B8: C564 (antibody, V domains shown)
VH: EVQLLESGGGLVQPGTSLRLSCAASGFTFSSYAMSWVRQAPGKGLEWVSAISSSGGSTYYADSVKGRFTISRDNSKNTLYLHMNSLRAEDTAVYYCATERIAVAGTRMYNWFDPWGQGTLVTVSS
VL: DIQMTQSPSSLSASVGDRVTLTCRASQSISSYLNWYQQKPGKAPNLLIYAASSLQSGVPSRFSGSGSGTDFTLTISSLQPEDFATYYCQQSYSAPPWTFGQGTKVEIK
B9: C597 (antibody, V domains shown)
VH: QVQLVQSGPEVKKPGTSVKVSCKASGFTFTNSAVQWVRQSRRQRLEWIGWIVVGSGNTNYAQKFQERVTITRDMSTSTAYMELSSLRSEDTAVYYCAAVDCNSTSCYDAFDIWGQGTMVTVSS
VL: EIVLTQSPGTLSLSPGERATLSCRASQSFRSSYLAWYQQKPGQAPRLLIYGASSRATGIPDRFSGSGSGSDFTLTISRLEPEDFAVYYCQQYDISPWTFGQGTKVEIK
B10: C598 (antibody, V domains shown)
VH: QVQLVQSGPEVKKPGTSVKVSCKASGFTFSSSAVQWVRQARGQRLEWIGWIVVGSGNTNYAQKFQERVTITRDMSTSTAYMELSSLRSEDTAVFYCAAPYCNVTTCFDGFNIWGRGTMVTVSS
VL: EIVLTQSPGTLSLSPGERATLSCRASQSVRSSYFAWYQQKPGQAPRLLIYAASSRATGIPDRFSGSGSGTDFTLTISRLEPEDFALYYCQQYGSSPWTFGQGTKVEIK
B11: C517 (antibody, V domains shown)
VH: EVQLVESGGGLVQPGGSLRLSCAASEFIVSRNYMSWVRQAPGKGLEWVSLIYSGGSTYYADSVKGRFTISRDNSKNTLYLQMNSLRAEDTAMYYCARDIAGRLDYWGQGTLVTVSS
VL: DIQMTQSPSSLSASVGDRVTITCQASQDISKYLNWYQQKPGKAPKLLIYDASNLETGVPSRFSGSGSGTDFTFTISSLQPEDFATYYCQHYDSLSRLTFGGGTKVEIK
B12: C514 (antibody, V domains shown)
VH: EVQLVESGGGLVQPGGSLRLSCAASEFIVTRNYMSWVRQAPGKGLEWVSLIYPGGSTFYADSVKGRFTISRDNSKNTLFLHMNSLRAEDTAVYYCARDLAGRLDYWGQGTLVTVSS
VL: DIQMTQSPSSLSASVGDRVTITCQASQDINNFLNWYQQKPGKAPKLLIYDASNLETGVPSRFSGSGSGTDFTFTISSLQPEDIAIYYCQQYDSLSRLTFGGGTKVEIK
B13: C506 (antibody, V domains shown)
VH: EVQLVESGGGLVQPGGSLRLSCAASGFTFSSYDMHWVRQGTGKGLEWVSVIGTAGDAYYPGSVKGRFTISRENAKNSLYLQMNSLRAGDTAVYYCARMVYDSSGFKGYFDLWGRGTLVTVSS
VL: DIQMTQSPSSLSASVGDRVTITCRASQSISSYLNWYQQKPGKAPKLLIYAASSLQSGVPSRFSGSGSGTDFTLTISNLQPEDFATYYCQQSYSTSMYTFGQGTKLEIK
B14: C505 (antibody, V domains shown)
VH: EVQLLESGGGLVQPGGSLRLSCADSGFSFSTYGMSWVRQAPGKGLEWVSTISGSGDNTYHADSVKGRFTISRDNSKNTLYLQMNSLRAEDTAVYYCAKNIAEMSTFDDYFYYYGMDVWGQGTTVTVSS
VL: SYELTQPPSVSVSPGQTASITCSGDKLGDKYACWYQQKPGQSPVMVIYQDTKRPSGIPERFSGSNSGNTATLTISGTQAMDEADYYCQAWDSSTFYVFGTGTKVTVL
B15: C539 (antibody, V domains shown)
VH: EVQLVESGGGLVQPGRSLRLSCAASGFTFDDYALHWVRQAPGKGLEWVSGISWNGDSIGYADSVKGRFTISRDNAKNSLSLQMNSLTAEDTALYYCAKGVEYSSSSNCDYWGQGTLVTVSS
VL: DIQMTQSPSSVSASVGDRVTITCRASQDISSWLAWYQQKPGKAPKLLISLASGLQSGVPSRFSGSGSETDFTLTISSLQPEDFATYYCQQTNSFPLTFGGGTKVEI
B16: C510 (antibody, V domains shown)
VH: QVQLQQWGAGLLKPSETLSRTCAVYGGSFSGYYWSWFRQSPGKGLEWIGEINHSGSTNYNPSLKNRVTISVDTSKNQFSLMLSSVTAADTAVYYCARGGFGVVINYYYSGMDVWGRGTTVTVSS
VL: not shown
B17: C509 (antibody, V domains shown)
VH: QVQLQESGPGLVKPSGTLSLTCAVSGGSISSSNWWSWVRQPPGKGLEWIGEIYNSGSTNYNPSLKSRVTILVDKSKNQFSLKLSSVTAADTAVYYCAGSYSNYIGGVWFDPWGQGTLVTVSS
VL: EIVLTQSPATLSLSPGERATLSCRASQSVSTYLAWYQQKPGQAPRLLIYDASNRATGIPARFSGSGSGTDFTLTISSLEPEDFAVYYCQQRNNWLTFGGGTKVEIK
B18: C547 (antibody, V domains shown)
VH: QVQLVESGGGVVQPGRSLRLSCAASGFTFSSYGMHWVRQAPGKGLEWVAVISYDGSNKYYADSVKGRFTISRDNSKNTLYLQMNSLRAEDTAVYYCAKDTPGGDDILTGWGLYGMDVWGQGTTVTVSS
VL: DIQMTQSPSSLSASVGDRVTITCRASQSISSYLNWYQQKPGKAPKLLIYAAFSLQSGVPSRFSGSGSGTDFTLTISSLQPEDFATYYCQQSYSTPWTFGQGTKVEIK
B19: C543 (antibody, V domains shown)
VH: QVQLVESGGGVVQPGRSLRLSCTASGFTFSTAGMHWVRQAPGKGLEWVAVISYDGSNKDYADSVKGRFTISRDNSKSTLYLQMNSLRPEDTAVYYCAKDTPGGDDIMTGWGLYGMDVWGQGTTVTVSS
VL: DIQMTQSPSSLSASVGDRVTITCRASQSISSYLNWYHQKPGKAPKLLIYAAISLQSGVPSRFSGSGFGTDFTLTISSLQPEDFAIYYCQQSYSTPWTFGQGTKVEIK
B20: C507 (antibody, V domains shown)
VH: EVQLVESGGGVVQPGRSLRLSCAASGFTFSSYAIHWVRQAPGKGLEWVAVISFDGSNKYYRDSVKGRFTISRDNGKNTLYLQMNSLRAEDTAVYYCAKAALGYCTNGVCYCDNWGQGTLVTVSS
VL: NFMLTQPHSVSESPGKTVTISCTGSSGSIASNYVQWYQQRPGSAPTTVIYEDNQRPSGVPDRFSGSIDSSSNSASLSISGLKTEDEADYYCQSYDINSLWVFGGGTRLTVL
B21: C503 (antibody, V domains shown)
VH: QVQLQESGPGLVQPSGTLSLSCTVTGGSISSNNWWSWVRQSPVKGLEWIGEIYHNGNINYNPSLKSRVTMSIDKSKNHFSLKLSSVTAADTAVYYCARGDVLDWFDPWGQGTLVTVS
VL: QSALTQPASVSGSPGQSITFSCTGTSSDVGAYNYISWYQQHPGKAPKLMIYDVNNRPSGVSRRFSGSKSGNTASLTISGLQSEDEADYFCSSYAGNSTVRFGGGTKLTVL
B22: C540 (antibody, V domains shown)
VH: EVQLVESGGGLVQPGGSLRLSCAASGFTFRNYDMHWVRQVAGKGLEWVSAIGTSGDTYYPDSVKGRFTISRENAKNSVYLQMNNLRAGDTAVYFCVRDREISGWTGWYFDLWGRGTLVTVSS
VL: DIQMTQSPSSLSASVGDRVTITCRASQTIHNYLNWYQQIPGKAPRLLIYATNTLQSGVPSRFSGSGSGTDFTLTITGLQPEDFATYYCQQSYSTPPITFGQGTRLEIK
B23: C504 (antibody, V domains shown)
VH: QVQLQESGPGLVKPSETLSLTCTVSGGSISSSYWNWIRQSPGKGLEWIGYIYYDGYTTFNPSLKSRVTISVDTSKNQFSLKLSSVTAADTAFYYCAAGLKGRSSSWYEYWGQGTLVTVSS
VL: DIQMTQSPSSLSASVGDRVTITCRASQSISSYLNWYQQKPGKAPKLLIYATSSLQSGVPSRFSGSGSGTDFTLTITSLQPEDFATYYCQQTYSSPHTFGQGTKLEIK

Each binder was assayed against SARS-CoV-2 RBD (wild type) (SARS-CoV-2, UniProt P0DTC2 319-539) (assay: ELISA on coated RBD).

| Binder | EC50 |
| --- | --- |
| B1 | 2.02 ng/mL |
| B2 | 2.28 ng/mL |
| B3 | 89.5 ng/mL |
| B4 | 1.19 ng/mL |
| B5 | 20.6 ng/mL |
| B6 | 45.9 ng/mL |
| B7 | 1.97 ng/mL |
| B8 | 14.6 ng/mL |

The binders below were run against SARS-CoV-2 spike receptor binding domain (RBD), S protein residues 319-539 (SARS-CoV-2, UniProt P0DTC2 319-539) (assay: ELISA on coated RBD).

| Binder | EC50 |
| --- | --- |
| B9 | 3.77 ng/mL |
| B10 | 3.78 ng/mL |
| B11 | 0.87 ng/mL |
| B12 | 0.82 ng/mL |
| B13 | 16 ng/mL |
| B14 | 9.08 ng/mL |
| B15 | 1.3 ng/mL |
| B16 | 5.94 ng/mL |
| B17 | 4.44 ng/mL |
| B18 | 1.78 ng/mL |
| B19 | 1.28 ng/mL |
| B20 | 5.6 ng/mL |
| B21 | 6.48 ng/mL |
| B22 | 2.9 ng/mL |
| B23 | 6.55 ng/mL |
